From publication doi:10.1101/2023.12.22.572978 (bioRxiv, 2023)

Molecular target: the molecule itself
Assay: FRET or BRET

B1: InlB321 K280C mutant, fluorophore-labeled (T variant) (domain or fragment, Listeria monocytogenes, UniProt P0DQD2 36-321, looked up)
chain: ETITVPTPIKQIFSDDAFAETIKDNLKKKSVTDAVTQNELNSIDQIIANNSDIKSVQGIQYLPNVTKLFLNGNKLTDIKPLANLKNLGWLFLDENKVKDLSSLKDLKKLKSLSLEHNGISDINGLVHLPQLESLYLGNNKITDITVLSRLTKLDTLSLEDNQISDIVPLAGLTKLQNLYLSKNHISDLRALAGLKNLDVLELFSQEALNKPINHQSNLVVPNTVKNTDGSLVTPEIISDDGDYECPNVKWHLPEFTNEVSFIFYQPVTIGKAKARFHGRVTQPLKE
modifications: Cy3B (donor) or ATTO 647N (acceptor) attached by maleimide chemistry to the single cysteine at position 280
- binding result: binds
